In patent US20210008175A1, “BACTERIOPHAGE LYSIN AND ANTIBIOTIC COMBINATIONS AGAINST GRAM POSITIVE BACTERIA” (priority 2012, published 2021):

Test system: Staphylococcus aureus
Assay: MIC, broth microdilution (CLSI M07-A9)
Assay type: cell-based
Conditions: for MIC90 / MIC90 [uM]: with reducing agent

B1: PlySs2: bacteriophage lysin derived from Streptococcus suis, amino acid sequence of FIG. 29 (SEQ ID NO: 1), N-terminal CHAP and C-terminal SH3 domain (protein, listed as Streptococcus suis)
chain: MTTVNEALNNVRAQVGSGVSVGNGECYALASWYERMISPDATVGLGAGVGWVSGAIGDTISAKNIGSSYNWQANGWTVSTSGPFKAGQIVTLGATPGNPYGHVVIVEAVDGDRLTILEQNYGGKRYPVRNYYSAASYRQQVVHYITPPGTVAQSAPNLAGSRSYRETGTMTVTVDALNVRRAPNTSGEIVAVYKRGESFDYDTVIIDVNGYVWVSYIGGSGKRNYVATGATKDGKRFGNAWGTFK
DRSA (n = 8)
  MIC90: 4
  MIC90 [uM]: 0.15 µM
Daptomycin-resistant (8)
  MIC 90%: 4
LRSA (n = 5)
  MIC90: 2
  MIC90 [uM]: 0.08 µM
Linezolid-resistant (5)
  MIC 90%: 2
MRSA (n = 45)
  MIC90: 4
  MIC90 [uM]: 0.15 µM
MSSA (n-28)
  MIC90: 4
  MIC90 [uM]: 0.15 µM
Methicillin resistant (120)
  MIC 50%: 4 µg/mL
  MIC 90%: 8 µg/mL
  MIC Range: 1 to 16 µg/mL
Methicillin susceptible (103)
  MIC 50%: 4 µg/mL
  MIC 90%: 8 µg/mL
  MIC Range: 1 to 16 µg/mL
VISA (n = 10)
  MIC90: 32
  MIC90 [uM]: 1.2 µM
VRSA (n = 14)
  MIC90: 2
  MIC90 [uM]: 0.08 µM
Vancomycin-intermediate (31)
  MIC 90%: 32
Vancomycin-resistant (14)
  MIC 90%: 4
All strains tested including 103 MSSA and 120 MRSA isolates
  MIC: 8 µg/mL
Strain MW2, without DTT
  MIC: 32 µg/mL
